# According to article PMC10086585, “From netrin‐1‐targeted SPECT/CT to internal radiotherapy for management of advanced solid tumors” (EMBO Molecular Medicine, 2023):
# B1: recombinant human vitronectin (natural protein, UniProt P04004 20-478, looked up)
# chain: DQESCKGRCTEGFNVDKKCQCDELCSYYQSCCTDYTAECKPQVTRGDVFTMPEDEYTVYDDGEEKNNATVHEQVGGPSLTSDLQAQSKGNPEQTPVLKPEEEAPAPEVGASKPEGIDSRPETLHPGRPQPPAEEELCSGKPFDAFTDLKNGSLFAFRGQYCYELDEKAVRPGYPKLIRDVWGIEGPIDAAFTRINCQGKTYLFKGSQYWRFEDGVLDPDYPRNISDGFDGIPDNVDAALALPAHSYSGRERVYFFKGKQYWEYQFQHQPSQEECEGSSLSAVFEHFAMMQRDSWEDIFELLFWGRTSAGTRQPQFISRDWHGVPGQVDAAMAGRIYISGMAPRPSLAKKQRFRHRNRKGYRSQRGHSRGRNQNSRRPSRATWLSLFSSEESNLGANNYDDYRMDWLVPATCEPIQSVFFFSGDKYYRVNLRTRRVDTVDPPYPRSIAQYWLGCPAPGHL
# notes: vitronectin, human, recombinant; also called hVitronectin
# B2: recombinant human lumican (natural protein, UniProt P51884 19-338, looked up)
# chain: QYYDYDFPLSIYGQSSPNCAPECNCPESYPSAMYCDELKLKSVPMVPPGIKYLYLRNNQIDHIDEKAFENVTDLQWLILDHNLLENSKIKGRVFSKLKQLKKLHINHNNLTESVGPLPKSLEDLQLTHNKITKLGSFEGLVNLTFIHLQHNRLKEDAVSAAFKGLKSLEYLDLSFNQIARLPSGLPVSLLTLYLDNNKISNIPDEYFKRFNALQYLRLSHNELADSGIPGNSFNVSSLVELDLSYNKLKNIPTVNENLENYYLEVNQLEKFDIKSFCKILGPLSYSKIKHLRLDGNRISETSLPPDMYECLRVANEVTLN
# notes: lumican, human, recombinant; also called hLumican
# B3: recombinant human glypican‐1 (natural protein, UniProt P35052 24-530, looked up)
# chain: DPASKSRSCGEVRQIYGAKGFSLSDVPQAEISGEHLRICPQGYTCCTSEMEENLANRSHAELETALRDSSRVLQAMLATQLRSFDDHFQHLLNDSERTLQATFPGAFGELYTQNARAFRDLYSELRLYYRGANLHLEETLAEFWARLLERLFKQLHPQLLLPDDYLDCLGKQAEALRPFGEAPRELRLRATRAFVAARSFVQGLGVASDVVRKVAQVPLGPECSRAVMKLVYCAHCLGVPGARPCPDYCRNVLKGCLANQADLDAEWRNLLDSMVLITDKFWGTSGVESVIGSVHTWLAEAINALQDNRDTLTAKVIQGCGNPKVNPQGPGPEEKRRRGKLAPRERPPSGTLEKLVSEAKAQLRDVQDFWISLPGTLCSEKMALSTASDDRCWNGMARGRYLPEVMGDGLANQINNPEVEVDITKPDMTIRQQIMQLKIMTNRLRSAYNGNDVDFQDASDDGSGSGSGDGCLDDLCSRKVSRKSSSSRTPLTHALPGLSEQEGQKTS
# notes: glypican-1, human, recombinant; also called hGlypican‐1
# B4: recombinant human integrin α6β4 (complex)
# chain 1: FNLDTREDNVIRKYGDPGSLFGFSLAMHWQLQPEDKRLLLVGAPRAEALPLQRANRTGGLYSCDITARGPCTRIEFDNDADPTSESKEDQWMGVTVQSQGPGGKVVTCAHRYEKRQHVNTKQESRDIFGRCYVLSQNLRIEDDMDGGDWSFCDGRLRGHEKFGSCQQGVAATFTKDFHYIVFGAPGTYNWKGIVRVEQKNNTFFDMNIFEDGPYEVGGETEHDESLVPVPANSYLGLLFLTSVSYTDPDQFVYKTRPPREQPDTFPDVMMNSYLGFSLDSGKGIVSKDEITFVSGAPRANHSGAVVLLKRDMKSAHLLPEHIFDGEGLASSFGYDVAVVDLNKDGWQDIVIGAPQYFDRDGEVGGAVYVYMNQQGRWNNVKPIRLNGTKDSMFGIAVKNIGDINQDGYPDIAVGAPYDDLGKVFIYHGSANGINTKPTQVLKGISPYFGYSIAGNMDLDRNSYPDVAVGSLSDSVTIFRSRPVINIQKTITVTPNRIDLRQKTACGAPSGICLQVKSCFEYTANPAGYNPSISIVGTLEAEKERRKSGLSSRVQFRNQGSEPKYTQELTLKRQKQKVCMEETLWLQDNIRDKLRPIPITASVEIQEPSSRRRVNSLPEVLPILNSDEPKTAHIDVHFLKEGCGDDNVCNSNLKLEYKFCTREGNQDKFSYLPIQKGVPELVLKDQKDIALEITVTNSPSNPRNPTKDGDDAHEAKLIATFPDTLTYSAYRELRAFPEKQLSCVANQNGSQADCELGNPFKRNSNVTFYLVLSTTEVTFDTPDLDINLKLETTSNQDNLAPITAKAKVVIELLLSVSGVAKPSQVYFGGTVVGEQAMKSEDEVGSLIEYEFRVINLGKPLTNLGTATLNIQWPKEISNGKWLLYLVKVESKGLEKVTCEPQKEINSLNLTESHNSRKKREITEKQIDDNRKFSLFAERKYQTLNCSVNVNCVNIRCPLRGLDSKASLILRSRLWNSTFLEEYSKLNYLDILMRAFIDVTAAAENIRLPNAGTQVRVTVFPSKTVAQYS
# chain 2: NRCKKAPVKSCTECVRVDKDCAYCTDEMFRDRRCNTQAELLAAGCQRESIVVMESSFQITEETQIDTTLRRSQMSPQGLRVRLRPGEERHFELEVFEPLESPVDLYILMDFSNSMSDDLDNLKKMGQNLARVLSQLTSDYTIGFGKFVDKVSVPQTDMRPEKLKEPWPNSDPPFSFKNVISLTEDVDEFRNKLQGERISGNLDAPEGGFDAILQTAVCTRDIGWRPDSTHLLVFSTESAFHYEADGANVLAGIMSRNDERCHLDTTGTYTQYRTQDYPSVPTLVRLLAKHNIIPIFAVTNYSYSYYEKLHTYFPVSSLGVLQEDSSNIVELLEEAFNRIRSNLDIRALDSPRGLRTEVTSKMFQKTRTGSFHIRRGEVGIYQVQLRALEHVDGTHVCQLPEDQKGNIHLKPSFSDGLKMDAGIICDVCTCELQKEVRSARCSFNGDFVCGQCVCSEGWSGQTCNCSTGSLSDIQPCLREGEDKPCSGRGECQCGHCVCYGEGRYEGQFCEYDNFQCPRTSGFLCNDRGRCSMGQCVCEPGWTGPSCDCPLSNATCIDSNGGICNGRGHCECGRCHCHQQSLYTDTICEINYSAIHPGLCEDLRSCVQCQAWGTGEKKGRTCEECNFKVKMVDELKRAEEVVVRCSFRDEDDDCTYSYTMEGDGAPGPNSTVLVHKKKDCPPGS
# notes: integrin alpha-6, human, recombinant; integrin beta-4, human, recombinant; also called hIntegrin
# B5: fibronectin leucine‐rich transmembrane protein (FLRT1), recombinant human (natural protein, UniProt Q9NZU1 49-552, looked up)
# chain: IDSTTCPSVCRCDNGFIYCNDRGLTSIPADIPDDATTLYLQNNQINNAGIPQDLKTKVNVQVIYLYENDLDEFPINLPRSLRELHLQDNNVRTIARDSLARIPLLEKLHLDDNSVSTVSIEEDAFADSKQLKLLFLSRNHLSSIPSGLPHTLEELRLDDNRISTIPLHAFKGLNSLRRLVLDGNLLANQRIADDTFSRLQNLTELSLVRNSLAAPPLNLPSAHLQKLYLQDNAISHIPYNTLAKMRELERLDLSNNNLTTLPRGLFDDLGNLAQLLLRNNPWFCGCNLMWLRDWVKARAAVVNVRGLMCQGPEKVRGMAIKDITSEMDECFETGPQGGVANAAAKTTASNHASATTPQGSLFTLKAKRPGLRLPDSNIDYPMATGDGAKTLAIHVKALTADSIRITWKATLPASSFRLSWLRLGHSPAVGSITETLVQGDKTEYLLTALEPKSTYIICMVTMETSNAYVADETPVCAKAETADSYGPTTTLNQEQNAGPMASLP
# notes: FLRT1 (fibronectin leucine-rich transmembrane protein 1), human, recombinant; also called hFLRT‐1; FLTR1
# Target: T1, human recombinant netrin‐1, on AHC biosensors (human, UniProt O95631 25-604)
# T1 construct: netrin-1, human, recombinant; AHC sensors capture human IgG Fc, so an Fc-tagged netrin-1 is surmised; Capture through a human antibody cannot be excluded; It may otherwise be the same protein as m1; also called h‐netrin‐1
# Assay: BLI; netrin-1 on AHC biosensors; analytes at 3.12-100 nM; 30°C, 1,000 rpm; PBS, 0.02% Tween-20, 0.1% BSA; 5 min association, 5 min dissociation
# Conditions: both partners purified
row,Kd [nM],Binder
1,6.85,B1
2,15.5,B2
3,15.6,B3
4,0.96,B4
5,15.5,B5
